Assay: label from the status in PepcDB records
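Note: failed if final PepcDB status was selected cloned or expressed and not failed if soluble or beyond.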

Row | Sequence | protein production
1 | MRQYPRWYYDEFKQSGADYADIEEVNTYDLRMQNLRNIENESNRIRELLKLKKSDVVLEIGTGTGELALNISAHCKQVIAIDVSKMMINFARRKAESQNKTNIQFYNAGFLTYENHDELFDVIVTQLALHHLPDYWKMMALRRIYGMLKEEGKFYLHDVVFPSSIQNYDSYFDKIITDLEISAGDKIAEETEIHIKEEFSTLDWVMEGLLTGVGFYIEYIKYDGFMASYICKK | failed
2 | MRRAAGKPRARRNTACHAAGILKKYPSVSALGCTFHDARQTSRCDENDKTNETMSSALLLVPDFSLILIGWLLVRYTPFDRGFWAGVERLVYFVLFPALLLQSTNSAKFDFSSTSAMLGLALLTMVFGMATGYLVKWVLRPAPADFASGLQTAFRFNSYIGLALAARLGNGEGLALMALVVGVTVPLCNVVAVWALAKHGEARVLRELVRNPLILATATGLVTNLLGLHPPEVVAMTLNRLGSASTALGLMTVGAGLQMSGATGTAGPMAWWSGVKLLAMPCFAWLVGKYLPLTPLQYQIVVVYASLPTASSSYILAVRMGGNGPMVAATISAMTVVAIVTTPVWLSLVS | failed
3 | MRRCFSKITDCHLGFKNSNFLLVGSEVGSGSVTRTITTTTSERLFSSSYAAHQVDQIKDNPVSDMLIDKFGRLHTYLRISLTERCNLRCQYCMPSEGVELTPKPQLLSQSEIVRLAGLFVSAGVNKIRLTGGEPTVRKDIEEICLQLSSLKGLKNLAITTNGITLAKKLPRLKECGLDSLNISLDTLVPAKFEFLTRRKGHDRVMKSIDTAIELGYNPVKVNCVIMRGLNDDEICDFVELTRDKPINVRFIEFMPFDGNVWNVKKLVPYAEVMDKVVKRFPSIKRMQDHPTETAKNFTIDGHCGSVSFITSMTEHFCAGCNRLRLLADGNFKVCLFGPSEVSLRDPLRSGADDEALREIIGAAVKRKKAAHAGMLDIAKTANRPMIHIGG | failed
4 | MRRFLAGLWLLGLALGQGLVLPFEGPKGYGLAQAFAQGLKAPPPTLLALLLPDLPWRGSYELAGGLYTKAGARLARAATGADWVLLGREEEGGLRLILAREGGSEERLFKTPELAWLWLQGKGLAPRLSPLPTPGLPEERLRALAQGEAPDPLHRSALDLKEGRGSGLLEGLLPERLLLLWQGKLPRAYEAFRLLAEGKREEALALAEAMEEGDVLERTAAHLLFRALEDERWKASARRLAEAFPELSLAWEEVSFAAFQEGKGEEAKEALLKALALRPDYWLYWTNLGWAYYLTGDLPRAIQASERAVALSPNATAYYNLGLFKAIYGDFLGAKAAYDRALRLDQGEDYPEALKDLEEREEPLALFFRAYLAERTGLEAEPLYRAFLEAYPRHPAAFAARRALATLKAGGLSLEVERLTLVPGGPDARPFRAGEAIFPEVRLEGRPYLRQASLFTALYREGRKVAEEEKPVGFPPLTVALLEVAPPVVPEAPGRYRLEVRYAEARAVLDLEVGAPSLARRLFALGLEVRDLSGRPLLTPKEALGEDGERLLLERAREALMEAAPLATTERLTQPLEKGPVAGRSVQEVLRDPDPEILRAFFQAVLENPERLAETDVVNAFVNWLLEP | failed
5 | MRRLKRDPLERAFLRGYQNGITGKSRDLCPFTHPTTRQSWLNGWREGRGDNWDGLTGTAGLQRLNQLQHVLEHHHHHH | failed
6 | MRRLLFLSLAGLWLFSPAAAAQLPGLISQPLAGGGQSWSLSVQTLVFITSLTFLPAILLMMTSFTRIIIVFGLLRNALGTPSAPPNQVLLGLALFLTFFIMSPVIDKIYVDAYQPFSEQKISMQEALDKGAQPLRAFMLRQTREADLALFARLANSGPLQGPEAVPMRILLPAYVTSELKTAFQIGFTIFIPFLIIDLVIASVLMALGMMMVPPATIALPFKLMLFVLVDGWQLLMGSLAQSFYS | failed
7 | MRRNRPGARHCPAFSGYPDPGFPRGSRRSGSSRRGKSRIMDWLKSLPGIGPLIARLMTTHAWRSYERLDRVKWTQLAAAMTFISFVALFPLLTVAAAIGAAALSEEQQKTLQDKLAEQVPGISDQLDIHALVQNAGTVGVIAGAVLLFTGIGWVGAMRDCLRAVWELDDDEENPFLRKLKDGGVLLGLGGAVLVTLATSTVASAMVGWTADRLGIERDGWGSVLLHITAFLVAVLADFLLLLYVLTLLPGVEPTRRRLVVAALIGAVGFELLKLLLSGYIQGVASKSMYGAFGVPVALLLWINFTSKLLLFCAAWTATPSDGPAEEEVSGASDDVPDRAAASGG | failed
8 | MRRPVSKWALLALLFTALLAADQWTKYLAVERLTVVFERGGDETLAERVRGFYTYRHLEPLSTEPYYVWRPVWRMNYVENPGAAWGLFRGHSQFFRNAFFTLVSVAAVAFILHYYRKLRQDQRYLQVALGLVLAGAVGNFVDRLARRYVIDFIEWYWWNRPDIRWPTFNVADSLIVVGVAMLVLHPGSRREAARAPARRDAAAERV | failed
